Values of other authors in paper PMC5512170.
pKd: −log10 of the molar value.

Molecular target: SNX27 PDZ (Homo sapiens) (UniProt Q96L92)
Experiment: fluorescence polarization

pKd: 4.77
Substance: ß2-AR tail C-tail (from UniProt P07550)
